Assay results taken from PMC6497270, “Thermodynamic investigation of DNA-binding affinity of wild-type and mutant transcription factor RUNX1”.

Key:
[1] = molecular target: RUNX1 WT (RUNT-containing) (Homo sapiens, UniProt Q01196 1-181); assay: ITC; without CBFβ; ITC: 20 uM RUNX1 in cell, 100 uM DNA in syringe, 10 mM HEPES-NaOH pH 7.5, 180 mM NaCl, 0.005% Tween 20; temperature stated as 277 K (Methods) but 25 °C (Results); conditions: protein: recombinant; tags: N-terminal His6; (21 bp)
RUNX1 R139Q = RUNX1 R139Q (Homo sapiens, UniProt Q01196 1-181, R139Q); assay: as above; conditions: protein: recombinant; tags: N-terminal His6; (21 bp)
RUNX1 K83R = RUNX1 K83R (Homo sapiens, UniProt Q01196 1-181, K83R); assay: as above; conditions: protein: recombinant; tags: N-terminal His6; (21 bp)
RUNX1 K83R/H179K = RUNX1 K83R/H179K (Homo sapiens, UniProt Q01196 1-181, K83R;H179K); assay: as above; conditions: protein: recombinant; tags: N-terminal His6; (21 bp)
RUNX1 H179K = RUNX1 H179K (Homo sapiens, UniProt Q01196 1-181, H179K); assay: as above; conditions: protein: recombinant; tags: N-terminal His6; (21 bp)
RUNX1 S114L = RUNX1 S114L (Homo sapiens, UniProt Q01196 1-181, S114L); assay: as above; conditions: protein: recombinant; tags: N-terminal His6; (21 bp)
RUNX1 K83E;CBFβ = RUNX1 K83E;CBFβ (Homo sapiens;Homo sapiens?, UniProt Q01196;Q13951 1-181;1-141, K83E|); assay: ITC; RUNX1:CBFβ 1:2; no significant enthalpy change; ITC: 20 uM RUNX1 in cell, 100 uM DNA in syringe, 10 mM HEPES-NaOH pH 7.5, 180 mM NaCl, 0.005% Tween 20; temperature stated as 277 K (Methods) but 25 °C (Results); conditions: protein: recombinant;recombinant; tags: N-terminal His6;; copies: 1;1; (21 bp)
RUNX1 S114L;CBFβ = RUNX1 S114L;CBFβ (Homo sapiens;Homo sapiens?, UniProt Q01196;Q13951 1-181;1-141, S114L|); assay: ITC; RUNX1:CBFβ 1:2; ITC: 20 uM RUNX1 in cell, 100 uM DNA in syringe, 10 mM HEPES-NaOH pH 7.5, 180 mM NaCl, 0.005% Tween 20; temperature stated as 277 K (Methods) but 25 °C (Results); conditions: protein: recombinant;recombinant; tags: N-terminal His6;; copies: 1;1; (21 bp)
RUNX1 K83R/H179K;CBFβ = RUNX1 K83R/H179K;CBFβ (Homo sapiens;Homo sapiens?, UniProt Q01196;Q13951 1-181;1-141, K83R;H179K|); assay: as above; conditions: protein: recombinant;recombinant; tags: N-terminal His6;; copies: 1;1; (21 bp)
[2] = molecular target: RUNX1 WT (RUNT-containing);CBFβ (Homo sapiens;Homo sapiens?, UniProt Q01196;Q13951 1-181;1-141, |); assay: as above; conditions: protein: recombinant;recombinant; tags: N-terminal His6;; copies: 1;1; (21 bp)
RUNX1 H179K;CBFβ = RUNX1 H179K;CBFβ (Homo sapiens;Homo sapiens?, UniProt Q01196;Q13951 1-181;1-141, H179K|); assay: as above; conditions: protein: recombinant;recombinant; tags: N-terminal His6;; copies: 1;1; (21 bp)
RUNX1 R139Q;CBFβ = RUNX1 R139Q;CBFβ (Homo sapiens;Homo sapiens?, UniProt Q01196;Q13951 1-181;1-141, R139Q|); assay: as above; conditions: protein: recombinant;recombinant; tags: N-terminal His6;; copies: 1;1; (21 bp)
RUNX1 K83R;CBFβ = RUNX1 K83R;CBFβ (Homo sapiens;Homo sapiens?, UniProt Q01196;Q13951 1-181;1-141, K83R|); assay: as above; conditions: protein: recombinant;recombinant; tags: N-terminal His6;; copies: 1;1; (21 bp)
RUNX1 K83E = RUNX1 K83E (Homo sapiens, UniProt Q01196 1-181, K83E); assay: ITC; without CBFβ; no significant enthalpy change; ITC: 20 uM RUNX1 in cell, 100 uM DNA in syringe, 10 mM HEPES-NaOH pH 7.5, 180 mM NaCl, 0.005% Tween 20; temperature stated as 277 K (Methods) but 25 °C (Results); conditions: protein: recombinant; tags: N-terminal His6; (21 bp)
RUNX1 K83E, sequence (Q01196 1-181 K83E): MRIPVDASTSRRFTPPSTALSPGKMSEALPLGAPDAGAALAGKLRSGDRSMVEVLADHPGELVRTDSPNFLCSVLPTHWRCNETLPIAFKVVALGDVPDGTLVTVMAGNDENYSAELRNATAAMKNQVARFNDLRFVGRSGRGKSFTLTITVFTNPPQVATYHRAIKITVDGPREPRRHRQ

RUNX1 K83R/H179K;CBFβ, sequence (Q01196 1-181 K83R/H179K, chain 1 of 2): as the sequence (Q01196 1-181 K83E) above, with E83R, H179K counted along it
RUNX1 K83R/H179K;CBFβ, sequence (Q13951 1-141, chain 2 of 2): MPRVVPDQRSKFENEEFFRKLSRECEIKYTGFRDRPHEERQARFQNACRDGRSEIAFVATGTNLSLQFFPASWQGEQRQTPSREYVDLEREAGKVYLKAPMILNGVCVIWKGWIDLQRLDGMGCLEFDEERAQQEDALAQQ
RUNX1 K83R/H179K, sequence (Q01196 1-181 K83R/H179K): as the sequence (Q01196 1-181 K83E) above, with E83R, H179K counted along it
RUNX1 K83E;CBFβ, sequence (Q01196 1-181 K83E, chain 1 of 2): as the sequence (Q01196 1-181 K83E) above
RUNX1 K83E;CBFβ, sequence (Q13951 1-141, chain 2 of 2): as the sequence (Q13951 1-141, chain 2 of 2) above
RUNX1 H179K;CBFβ, sequence (Q01196 1-181 H179K, chain 1 of 2): as the sequence (Q01196 1-181 K83E) above, with E83K, H179K counted along it
RUNX1 H179K;CBFβ, sequence (Q13951 1-141, chain 2 of 2): as the sequence (Q13951 1-141, chain 2 of 2) above
RUNX1 H179K, sequence (Q01196 1-181 H179K): as the sequence (Q01196 1-181 K83E) above, with E83K, H179K counted along it
RUNX1 R139Q, sequence (Q01196 1-181 R139Q): as the sequence (Q01196 1-181 K83E) above, with E83K, R139Q counted along it
RUNX1 R139Q;CBFβ, sequence (Q01196 1-181 R139Q, chain 1 of 2): as the sequence (Q01196 1-181 K83E) above, with E83K, R139Q counted along it
RUNX1 R139Q;CBFβ, sequence (Q13951 1-141, chain 2 of 2): as the sequence (Q13951 1-141, chain 2 of 2) above
RUNX1 K83R, sequence (Q01196 1-181 K83R): as the sequence (Q01196 1-181 K83E) above, with E83R counted along it
RUNX1 K83R;CBFβ, sequence (Q01196 1-181 K83R, chain 1 of 2): as the sequence (Q01196 1-181 K83E) above, with E83R counted along it
RUNX1 K83R;CBFβ, sequence (Q13951 1-141, chain 2 of 2): as the sequence (Q13951 1-141, chain 2 of 2) above
RUNX1 WT (RUNT-containing), sequence (Q01196 1-181): as the sequence (Q01196 1-181 K83E) above, with E83K counted along it
RUNX1 WT (RUNT-containing);CBFβ, sequence (Q01196 1-181, chain 1 of 2): as the sequence (Q01196 1-181 K83E) above, with E83K counted along it
RUNX1 WT (RUNT-containing);CBFβ, sequence (Q13951 1-141, chain 2 of 2): as the sequence (Q13951 1-141, chain 2 of 2) above
RUNX1 S114L, sequence (Q01196 1-181 S114L): as the sequence (Q01196 1-181 K83E) above, with E83K, S114L counted along it
RUNX1 S114L;CBFβ, sequence (Q01196 1-181 S114L, chain 1 of 2): as the sequence (Q01196 1-181 K83E) above, with E83K, S114L counted along it
RUNX1 S114L;CBFβ, sequence (Q13951 1-141, chain 2 of 2): as the sequence (Q13951 1-141, chain 2 of 2) above

B1: CSF-1R promoter 21 bp DNA (dsDNA)
DNA 1: CAAACTCTGTGGTTGCCTTGC
DNA 2: GCAAGGCAACCACAGAGTTTG
Kd [1]: 490 ± 10 nM
Kd (RUNX1 R139Q): 1480 ± 510 nM
Kd (RUNX1 K83R): 480 ± 150 nM
Kd (RUNX1 K83R/H179K): 290 ± 50 nM
Kd (RUNX1 H179K): 350 ± 120 nM
Kd (RUNX1 S114L): 700 ± 80 nM
binding result (RUNX1 K83E;CBFβ): no binding
Kd (RUNX1 S114L;CBFβ): 390 ± 80 nM
Kd (RUNX1 K83R/H179K;CBFβ): 73 ± 5 nM
Kd [2]: 230 ± 50 nM
Kd (RUNX1 H179K;CBFβ): 100 ± 40 nM
Kd (RUNX1 R139Q;CBFβ): 3350 ± 800 nM
Kd (RUNX1 K83R;CBFβ): 160 ± 30 nM
binding result (RUNX1 K83E): no binding
